Data: US20230406935A1 (F STAR THERAPEUTICS, published 2023)
Where a chain is given by its changes, count along the chain named. Where two headings read alike, the source gives them in different places.

Legend:
[1] = biological target: T1, Human PD-L1 expressed on cells (human, UniProt Q9NZQ7 19-290); assay: cell-based or functional assay
[2] = biological target: T1, Human PD-L1 expressed on cells; assay: cell-based blocking of biotinylated PD-1 Fc binding to HEK 293 hPD-L1 cells, flow cytometry
Protocol: The blocking activity of the clones produced in Example 2.2.1 was analysed in a cell-based assay using HEK 293 cells overexpressing human PD-L1 (see 1.5 for development of the cell line). Briefly, HEK 293 cells expressing human PD-L1 were seeded at 1×10⁵ cells per well in a V-bottom 96-well plate in PBS. […] The plates were centrifuged at 1500 rpm for 3 minutes at 4° C. to pellet the cells. […] The plates were centrifuged at 1500 rpm for 3 minutes at 4° C. to pellet the cells, supernatant was discarded and the cells were resuspended in PBS. Streptavidin conjugated to Alexa 488 was diluted 1:1000 in PBS and 100 μl was added to the wells for 30 minutes at 4° C. The plates were centrifuged at 1500 rpm for 3 minutes at 4° C. to pellet the cells, supernatant discarded and the cells were resuspended in PBS with DAPI. The plate was read on FACS Canto (BD Bioscience) and the data analysed using FlowJoX.

[3] = biological target: T2, Monomeric His-tagged human PD-L1 (Acro biosystems PD1-H5229) (human, UniProt Q9NZQ7 19-238); assay: SPR Biacore, captured on protein A, monomeric PD-L1-his in flow, 1:1 fit
T2 construct: also called hPD-L1-his; PD-L1-his
Protocol: The monomeric PD-L1-his human antigen was flowed over the chip in titrating concentrations at a high flow rate to minimise mass transport limitations. The KDS were measured using a 1:1 fitting analysis with no refractive index correction and Rₘₐₓ set to local.

[4] = biological target: T3, Cynomolgus PD-L1 expressed on HEK 293 cells (cynomolgus, UniProt Q9NZQ7 19-290 (human entry)); assay: flow cytometry, HEK293 cells overexpressing the target, anti-human Fc 488
T3 construct: also called cell-expressed cynomolgus PD-L1
Protocol: (§1) Cell binding assays were performed by incubating Fcabs or mAb² proteins with either control HEK293 cells or HEK293 cells overexpressing hPD-L1 or cynomolgus PD-L1 cells for 1 hour at 4° C. Fcab/mAb binding was subsequently detected using an anti-human Fc 488 detection antibody. Fluorescent signal intensities were measured using a FACS canto.

[5] = biological target: T1, Human PD-L1 expressed on cells; assay: as above
Protocol: as §1

[6] = biological target: T4, Biotinylated hPD-L1-Fc-Avi (human, UniProt Q9NZQ7 19-238); assay: cell-based RBA, blocking of hPD-L1-Fc-Avi binding to HEK293 hCD80 cells; PD-L1 at 50 µg/mL
[7] = biological target: T4, Biotinylated hPD-L1-Fc-Avi; assay: cell-based RBA, blocking of hPD-L1-Fc-Avi binding to HEK293 hPD-1 cells
Protocol: The ability of the Fcabs and mock mAb² to block hPD-1/hPD-L1 and hPD-L1/hCD80 interactions was tested in cell-based Receptor Binding Assays (RBA). […] The mix was incubated for another hour with HEK293 cells overexpressing either hPD-1 or hCD80.

[8] = biological target: T2, Monomeric His-tagged human PD-L1 (Acro …); assay: SPR Biacore T200, mAb^2 captured by anti-Fab on CM5, monomeric antigen in flow, 1:1 fit
[9] = biological target: T5, Monomeric cynomolgus PD-L1 (Acro Biosciences PD1-C52H4) (cynomolgus, UniProt Q9NZQ7 19-238 (human entry)); assay: as above
T5 construct: also called cynomolgus monomeric PD-L1

[10] = biological target: T4, Biotinylated hPD-L1-Fc-Avi; assay: cell-based RBA (Example 8.3), blocking of hPD-L1-Fc-Avi binding to HEK293 hCD80 cells
Protocol: (§2) The ability of the mock mAb² to block hPD-1/hPD-L1 and hPD-L1/hCD80 interactions was tested in cell-based Receptor Blocking Assays (RBA). […] The mix was incubated for another hour with HEK293 cells overexpressing either hPD-1 or hCD80.

[11] = biological target: T4, Biotinylated hPD-L1-Fc-Avi; assay: cell-based RBA (Example 8.3), blocking of hPD-L1-Fc-Avi binding to HEK293 hPD-1 cells
Protocol: as §2

[12] = biological target: T2, Monomeric His-tagged human PD-L1 (Acro …); assay: SPR Biacore T200 as Example 5.1, anti-Fab capture, monomeric hPD-L1-his
Protocol: Fcab and mAb² binding to human PD-L1 was assessed by both BIAcore and in a cell binding assay. To measure the affinity of the clones to monomeric hPD-L1-his, the mAb² were captured using an anti-Fab antibody coated on a CM5 chip (GE 28-9582-20 AC) and Fcabs were captured using a Protein A chip (GE 29127556) using a Biacore T200 (GE). To minimize mass transport effects, the capture level was minimized to 200RU and a fast flow rate of 75 μl/min was used. […] The analysis of the data was done using the Biacore T200 evaluation software. Curves subtracted against a blank flow cell and a run with no antigen were analysed using a 1:1 fitting model with no bulk analysis and Rmax analysed locally.
The selected CH3 domain sequences were subcloned and expressed in “mock” (MSL109) mAb² format with the LALA mutation in the CH2 domain, as described in Example 4.2.1, for further screening.

[13] = biological target: T1, Human PD-L1 expressed on cells; assay: cell-based or functional assay; remark: listed apart in the source
[14] = biological target: T1, Human PD-L1 expressed on cells; assay: cell-based or functional assay; remark: listed apart in the source
[15] = biological target: T2, Monomeric His-tagged human PD-L1 (Acro …); assay: SPR Biacore T200, mock mAb^2 captured by anti-Fab on CM5, monomeric antigen in flow, 1:1 fit
[16] = biological target: T5, Monomeric cynomolgus PD-L1 (Acro …); assay: as above
[17] = biological target: T3, Cynomolgus PD-L1 expressed on HEK 293 …; assay: flow cytometry, HEK293 cells overexpressing the target, anti-human Fc 488; remark: listed apart in the source
Protocol: as §1, with “the mock” for “Fcabs or”, “mAb²” for “mAb² proteins”, “Mock mAb²” for “Fcab/mAb”, “Canto flow cytometer (BD Biosciences).” for “canto.”

[18] = biological target: T1, Human PD-L1 expressed on cells; assay: as above; remark: listed apart in the source
Protocol: as §1, with “the mock” for “Fcabs or”, “mAb²” for “mAb² proteins”, “Mock mAb²” for “Fcab/mAb”, “Canto flow cytometer (BD Biosciences).” for “canto.”

T1 sequence (Q9NZQ7 19-290 limits assumed): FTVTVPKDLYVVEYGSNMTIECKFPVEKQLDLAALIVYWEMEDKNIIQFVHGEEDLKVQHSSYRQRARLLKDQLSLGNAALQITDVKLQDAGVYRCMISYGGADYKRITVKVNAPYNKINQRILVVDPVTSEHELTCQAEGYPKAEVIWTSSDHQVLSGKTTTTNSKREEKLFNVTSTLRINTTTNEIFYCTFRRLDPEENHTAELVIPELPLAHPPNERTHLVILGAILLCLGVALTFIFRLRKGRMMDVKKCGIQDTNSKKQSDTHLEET
T5 sequence (Q9NZQ7 other isoform, or with tags, fused parts or gaps limits assumed): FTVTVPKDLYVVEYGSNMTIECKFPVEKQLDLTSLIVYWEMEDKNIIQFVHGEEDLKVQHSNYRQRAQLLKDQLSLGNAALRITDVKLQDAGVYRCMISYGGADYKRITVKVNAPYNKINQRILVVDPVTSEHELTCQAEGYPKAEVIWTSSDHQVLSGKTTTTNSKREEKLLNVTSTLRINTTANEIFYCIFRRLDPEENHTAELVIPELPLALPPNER
T3 sequence (Q9NZQ7 other isoform, or with tags, fused parts or gaps limits assumed): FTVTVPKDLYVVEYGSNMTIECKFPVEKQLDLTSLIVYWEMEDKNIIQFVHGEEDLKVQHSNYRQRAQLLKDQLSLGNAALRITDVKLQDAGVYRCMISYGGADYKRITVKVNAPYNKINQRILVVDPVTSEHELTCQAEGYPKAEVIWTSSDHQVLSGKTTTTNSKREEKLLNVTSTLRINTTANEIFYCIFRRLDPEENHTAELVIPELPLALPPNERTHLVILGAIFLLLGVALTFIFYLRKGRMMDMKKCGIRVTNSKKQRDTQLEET
T2 sequence (Q9NZQ7 19-238 limits assumed): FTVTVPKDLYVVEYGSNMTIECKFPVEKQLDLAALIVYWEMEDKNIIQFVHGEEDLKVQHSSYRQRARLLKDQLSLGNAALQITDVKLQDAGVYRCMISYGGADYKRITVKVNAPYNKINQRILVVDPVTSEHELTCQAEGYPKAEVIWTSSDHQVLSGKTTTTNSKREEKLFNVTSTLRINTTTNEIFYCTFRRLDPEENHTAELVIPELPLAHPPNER
T4 sequence (Q9NZQ7 19-238 limits assumed): as above

B1: FS17-33-116/4420 mAb^2 (bispecific antibody, human IgG1, kappa, L234A L235A, V domains shown)
VH: EVKLDETGGGLVQPGRPMKLSCVASGFTFSDYWMNWVRQSPEKGLEWVAQIRNKPYNYETYYSDSVKGRFTISRDDSKSSVYLQMNNLRVEDMGIYYCTGSYYGMDYWGQGTSVTVSS
VL: DVVMTQTPLSLPVSLGDQASISCRSSQSLVHSNGNTYLRWYLQKPGQSPKVLIYKVSNRFSGVPDRFSGSGSGTDFTLKISRVEAEDLGVYFCSQSTHVPWTFGGGTKLEIKR
**Q.** With B1 as the binder, how does the “DO11.10 T cell activation assay EC50” value [1] read?
**A.** Its value is < 1 nM.

B2: Fcab FS17-33 with LALA mutation (pTT5-FS17-33AA) (designed binder)
chain: TCPPCPAPEAAGGPSVFLFPPKPKDTLMISRTPEVTCVVVDVSHEDPEVKFNWYVDGVEVHNAKTKPREEQYNSTYRVVSVLTVLHQDWLNGKEYKCKVSNKALPAPIEKTISKAKGQPREPQVYTLPPSRDEQSGYWVSLTCLVKGFYPSDIAVEWESNGQPENNYKTTPPVLDSDGSFFLYSKLTVSNWRWQMGDFSCSVMHEALHNHYTQKSLSLSPGK
**Q.** B2 was tested. Which IC50 [2] did it give?
**A.** Its IC50 is 17.7 nM.

B3: Fcab FS17-33-37 with LALA mutation (designed binder)
chain: B2 chain with S135V, G196D
notes: also called FS17-33-37AA
**Q.** B3 was tested. Which IC50 [2] did it give?
**A.** Its IC50 is 8.1 nM.

**Q.** What about the Kd [3] of the same binder?
**A.** The Kd was 270 nM.

**Q.** And the koff [3]?
**A.** Its koff is 0.02 s⁻¹.

**Q.** And the kon [3]?
**A.** Its kon is 76000 M⁻¹ s⁻¹.

B4: FS17-33-449AA/MSL109 mock mAb^2 (bispecific antibody, human IgG1, kappa, L234A L235A)
heavy: EEQVLESGGGLVKPGGSLRLSCAASGFTFSPYSVFWVRQAPGKGLEWVSSINSDSTYKYYADSVKGRFTISRDNAENSIFLQMNSLRAEDTAVYYCARDRSYYAFSSGSLSDYYYGLDVWGQGTTVIVSSASTKGPSVFPLAPSSKSTSGGTAALGCLVKDYFPEPVTVSWNSGALTSGVHTFPAVLQSSGLYSLSSVVTVPSSSLGTQTYICNVNHKPSNTKVDKKVEPKSCDKTHTCPPCPAPEAAGGPSVFLFPPKPKDTLMISRTPEVTCVVVDVSHEDPEVKFNWYVDGVEVHNAKTKPREEQYNSTYRVVSVLTVLHQDWLNGKEYKCKVSNKALPAPIEKTISKAKGQPREPQVYTLPPSRDETGYWVSLTCLVKGFYPSDIAVEWESNGEPQYWAKTTPPVLDSDGSFFLYSKLTVSNWRWQLDDVFSCSVMHEALHNHYTQKSLSLSPGK
light: DIVMTQSPLSLSVTPGEPASISCRSSQSLLHTNGYNYLDWYVQKPGQSPQLLIYLASNRASGVPDRFSGSGSGTDFTLKISRVETEDVGVYYCMQALQIPRTFGQGTKVEIKRTVAAPSVFIFPPSDEQLKSGTASVVCLLNNFYPREAKVQWKVDNALQSGNSQESVTEQDSKDSTYSLSSTLTLSKADYEKHKVYACEVTHQGLSSPVTKSFNRGEC
**Q.** What does the source list for B4?
**A.** Kd [4]: 3.6 nM; Kd [5]: 7.88 nM; EC50 [6]: 194 nM; EC50 [7]: 1.96 nM; Kd [8]: 0.38 nM; Kd [9]: 0.6 nM

B5: FS17-33-548AA/MSL109 (bispecific antibody, human IgG1, kappa, L234A L235A)
heavy: B4 heavy with T371E, D432G
light: B4 light
**Q.** Which results are given for B5?
**A.** EC50 [10]: 130 nM; EC50 [11]: 43.2 nM; Kd [12]: 0.43 nM; koff [12]: 0.000437 s⁻¹; DO11.10 EC50 [13]: 7.59 nM; DO11.10 EC50 [14]: 8.51 nM; Kd [15]: 0.6 nM; Kd [16]: 0.45 nM; EC50 [17]: 2.1 nM; EC50 [18]: 1.5 nM

B6: FS17-33-451AA/MSL109 mock mAb^2 (bispecific antibody, human IgG1, kappa, L234A L235A)
heavy: B4 heavy with T371E
light: B4 light
notes: also called FS17-33-451AA/MSL109 (parent 2)
**Q.** For B6, which Kd [4] is on record?
**A.** The Kd was 4.52 nM.

**Q.** What about the Kd [5] of the same binder?
**A.** Its Kd is 11.7 nM.

**Q.** What about the Kd [12] of the same binder?
**A.** Its Kd is 0.3 nM.

**Q.** What about the koff [12] of the same binder?
**A.** Its koff is 0.000329 s⁻¹.

**Q.** What about the “DO11.10 EC50” value [13] of the same binder?
**A.** Its value is 8.28 nM.

**Q.** And the EC50 [6]?
**A.** Its EC50 is 190 nM.

**Q.** What about the “DO11.10 EC50” value [14] of the same binder?
**A.** The value was 4.83 nM.

**Q.** What about the EC50 [7] of the same binder?
**A.** Its EC50 is 0.92 nM.

**Q.** What about the Kd [8] of the same binder?
**A.** The Kd was 0.34 nM.

**Q.** And the Kd [9]?
**A.** The Kd was 0.5 nM.

B7: FS17-33-539AA/MSL109 (bispecific antibody, human IgG1, kappa, L234A L235A)
heavy: B4 heavy with D432G, H445R
light: B4 light
**Q.** Which results are given for B7?
**A.** EC50 [10]: 119 nM; EC50 [11]: 49.7 nM; Kd [12]: 0.39 nM; koff [12]: 0.000427 s⁻¹; DO11.10 EC50 [13]: 2.91 nM; DO11.10 EC50 [14]: 3.14 nM; Kd [15]: 0.9 nM; Kd [16]: 0.95 nM; EC50 [17]: 10 nM; EC50 [18]: 4.8 nM

B8: FS17-33-488AA/MSL109 (bispecific antibody, human IgG1, kappa, L234A L235A)
heavy: B4 heavy with T371E, L410P, S415T, D432G, V434A, H445R
light: B4 light
**Q.** Which results are given for B8?
**A.** Kd [12]: 0.36 nM; koff [12]: 0.00036 s⁻¹; DO11.10 EC50 [14]: 3.25 nM
